In general, Kd refers to the equilibrium constant for the complex coming apart. Low values mean tighter binding, high ones weaker binding. For orientation: koff means a measure of how fast the partners let go of each other. Lower therefore signals a long-lived complex. The term kon denotes the second-order rate constant of association.

In this test the target is biotinylated sRAGE from transgenic silkworms co-expressing BirA and fed biotin bait (human) (UniProt Q15109). The test can be described thus: SPR; Biacore 2000; biotinylated sRAGE on SA sensor chip via the C-terminal biotin, about 560 RU; F-AGEs 0.25-4 uM injected, single-cycle kinetics, 30 uL/min, 25 C, PBS (-); 1:1 Langmuir model.
UniProt Q15109, sequence (Q15109 23-332): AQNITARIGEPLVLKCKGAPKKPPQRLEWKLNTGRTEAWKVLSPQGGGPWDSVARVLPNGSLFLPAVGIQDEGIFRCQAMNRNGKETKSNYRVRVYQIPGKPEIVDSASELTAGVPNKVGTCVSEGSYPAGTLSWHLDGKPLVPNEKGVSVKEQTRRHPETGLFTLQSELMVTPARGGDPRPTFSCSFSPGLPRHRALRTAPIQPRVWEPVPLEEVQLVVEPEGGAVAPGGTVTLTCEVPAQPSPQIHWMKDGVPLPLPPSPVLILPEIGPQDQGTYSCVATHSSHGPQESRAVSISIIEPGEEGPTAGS

On to “fructose-BSA (fructose-derived AGE-BSA) (from UniProt P02769 25-607) (ligand)”, for which the Kd came out at 0.725 µM, the koff is 0.00165 s⁻¹ and the kon stood at 7250 M⁻¹ s⁻¹.
